Here are results for two substances from patent US20050107285A1.

Test [1] concerns the target FcγRIIIb receptor on human neutrophils (human) (UniProt O75015). Nature of the test: flow cytometry of TNFα-primed human neutrophils with saturating FITC-Leu11b, quantified with Quantum Simply Cellular microbeads. A general note: In flow cytometry, cells or beads pass a laser one at a time.
Test [2] shares this target. Nature of the test: cell-based or functional assay.

Chain of UniProt O75015 (O75015 17-200): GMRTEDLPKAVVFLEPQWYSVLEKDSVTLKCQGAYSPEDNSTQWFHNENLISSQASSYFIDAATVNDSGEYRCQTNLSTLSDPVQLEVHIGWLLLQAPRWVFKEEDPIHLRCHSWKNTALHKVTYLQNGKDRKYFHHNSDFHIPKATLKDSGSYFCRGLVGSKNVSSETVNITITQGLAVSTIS

Turning to “FITC-labelled Leu11b (anti-CD16) (antibody)”, the antibody-binding sites per cell (antibody-binding sites per cell) in test [1] worked out at 240000.
In test [2], “insoluble IgG-containing immune complexes (human serum albumin and rabbit anti-HSA antibodies) (from UniProt P02768 25-609)” yielded a respiratory burst (luminol chemiluminescence) of primed neutrophils after PI-PLC depletion of surface FcγRIIIb of 70 % decrease.
